Results: US20230002466A1 (ELPIS BIOPHARMACEUTICALS, published 2023)
Like-named read-outs stand apart in the source and are kept apart here. Values belong to the binder of their own block, whether it stands above or below them.

Key:
[1] = molecular target: T1, human IL2Rβ Fc fusion protein (human, UniProt P14784 27-239); assay: ELISA, Fc-tagged receptor coated, anti-HisTag-HRP
T1 construct: also called Recombinant Fc-tagged human IL2Rβ; not shown: Fc
T1 sequence (looked up): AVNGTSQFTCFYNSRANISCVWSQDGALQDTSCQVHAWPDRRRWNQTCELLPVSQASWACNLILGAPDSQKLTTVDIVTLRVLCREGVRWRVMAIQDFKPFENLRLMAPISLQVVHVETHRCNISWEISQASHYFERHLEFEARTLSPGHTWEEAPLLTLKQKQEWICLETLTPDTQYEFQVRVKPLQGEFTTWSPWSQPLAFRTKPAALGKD
Method in brief: (§1)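 IL2 mutants, diluted from 1000 nM to 0 nM, were incubated 2 h at RT on plates coated overnight at 4 °C with Fc-tagged human IL2Rα (or IL2Rβ). Bound protein detected with anti-HisTag-HRP (1:5000, 1 h) and TMB. Absorbance read at 450 nm after acid stop.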

human IL2Rα [2] = molecular target: T2, human IL2Rα (human, UniProt P01589 22-213, limits assumed); assay: SPR (Biacore T200), human IL2Rα, single concentration of the IL2 protein, not printed (Example 13)
T2 construct: also called IL2α; CD25
T2 sequence (looked up): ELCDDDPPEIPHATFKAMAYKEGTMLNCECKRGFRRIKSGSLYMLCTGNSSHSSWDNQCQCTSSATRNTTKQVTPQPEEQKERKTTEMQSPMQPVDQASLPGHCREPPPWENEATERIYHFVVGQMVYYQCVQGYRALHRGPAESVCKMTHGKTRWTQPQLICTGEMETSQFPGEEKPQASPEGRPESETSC

human IL2Rβ [3] = molecular target: T3, human IL2Rβ (human, UniProt P14784 27-239); assay: SPR, single concentration
T3 construct: also called IL2β; CD122
T3 sequence (looked up): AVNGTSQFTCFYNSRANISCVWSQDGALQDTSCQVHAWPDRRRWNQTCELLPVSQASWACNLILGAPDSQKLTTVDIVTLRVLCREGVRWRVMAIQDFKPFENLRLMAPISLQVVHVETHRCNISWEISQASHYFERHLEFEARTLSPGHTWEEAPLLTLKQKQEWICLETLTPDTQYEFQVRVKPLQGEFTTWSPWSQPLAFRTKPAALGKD

[4] = molecular target: T4, human IL2Rα Fc fusion protein (human, UniProt P01589 22-213, limits assumed); assay: ELISA, single point, Fc-tagged human IL2Rα coated, anti-His-HRP; concentration not printed (Example 14)
T4 construct: also called Recombinant Fc-tagged human IL2Rα; not shown: Fc
T4 sequence (looked up): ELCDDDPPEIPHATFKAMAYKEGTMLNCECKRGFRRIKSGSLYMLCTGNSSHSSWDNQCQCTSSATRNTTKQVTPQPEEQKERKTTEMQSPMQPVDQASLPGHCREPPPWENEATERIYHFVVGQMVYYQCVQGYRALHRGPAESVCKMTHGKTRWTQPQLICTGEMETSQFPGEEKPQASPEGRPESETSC
Description: Recombinant Fc-tagged human IL2Rα and IL2Rβ were added in 25 uL of 1×PBS to wells of 384-well plate and incubated overnight at 4° C. to coat the plates. Plates were washed three times with 0.05% Tween20/1×PBS. Plates were blocked with 100 uL of SuperBlock for 1 hr at RT and then washed 3 times with 0.05% Tween20/1×PBS. IL2 mutants were diluted in 0.05% Tween 20/1×PBS from 1000 nM to 0 nM and added to plates for 2 hrs at room temperature. Plates were then washed 6 times with 0.05% Tween20/1×PBS. Anti-HisTag-HRP was diluted 1:5000 in 0.05% Tween20/1×PBS and added to plates for 1 hr at RT. Plates were then washed 6 times with 0.05% Tween 20/1×PBS, and TMB was added to develop blue color. Reactions were stopped with 2N […] and light absorbance at 450 nm was read on a BioTek plate reader.

[5] = molecular target: T4, human IL2Rα Fc fusion protein; assay: ELISA, Fc-tagged receptor coated, anti-HisTag-HRP
Method in brief: as §1

[6] = molecular target: T4, human IL2Rα Fc fusion protein; assay: ELISA, receptor-Fc coated, anti-Flag HRP
Method in brief: (§2)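 Plates coated overnight at 4 C with IL2Rα or IL2Rβ Fc fusion at 2 ug/mL, then blocked. Flag-tagged IL2 mutant dilutions were added in duplicate, and binding was detected with anti-Flag HRP (1:5000) and TMB for 5 min. EC50 was fitted from OD450.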

[7] = molecular target: T1, human IL2Rβ Fc fusion protein; assay: ELISA, receptor-Fc coated, anti-Flag HRP
Method in brief: as §2

human IL2Rβ [8] = molecular target: T3, human IL2Rβ; assay: SPR, IL2Rβ captured on Protein A chip, steady state affinity fitting
Description: (§3) The assay was run with Biacore T200 control software version 2.0. For each cycle, 1 ug/mL of human IL2Rβ was captured for 60 seconds at flow rate of 10 uL/min on flow cell 2 in 1×HBSP buffer on Protein A sensor chip. 100 nM of HIS and Flag tag purified each IL2 mutant was 2-fold serial diluted and injected onto both reference flow cell 1 and IL2Rβ captured flow cell 2 for 150 seconds at flow rate of 30 uL/min followed by washing for 300 seconds. The flow cells were then regenerated with Glycine pH2 for 60 seconds at a flow rate of 30 uL/min. The assay was set up with 8 serial diluted concentration points in 96-well format. The kinetics data was analyzed with Biacore T200 evaluation software 3.0. The specific binding response unit was derived from subtraction of binding to reference flow cell 1 from target flow cell 2 (FIGS. 16A-16F, Table 10).

human IL2Rβ [9] = molecular target: T3, human IL2Rβ; assay: SPR, IL2Rβ captured on Protein A chip
Description: as §3

human IL2Rβ [10] = molecular target: T3, human IL2Rβ; assay: SPR, IL2Rβ captured on Protein A chip; remark: listed apart in the source
Description: Kinetic analysis of the receptor binding activities of IL2Rβ agonist with IL2Rα reduced activity mutations have been assessed by SPR technology with Biacore T200. The assay was run with Biacore T200 control software version 2.0. For each cycle, 1 ug/mL of human IL2Rβ was captured for 60 seconds at flow rate of 10 ul/min on flow cell 2 in 1×HBSP buffer on Protein A sensor chip. 100 nM of HIS and Flag tag purified each IL2 mutant was 2 fold serial diluted and injected onto both reference flow cell 1 and IL2Rβ captured flow cell 2 for 150 seconds at flow rate of 30 ul/mins followed by wash for 300 seconds. The flow cells were then regenerated with Glycine pH2 for 60 seconds at flow rate of 30 ul/mins. The assay was set up with 8 serial diluted concentration points in 96 well format. The kinetics data was analyzed with Biacore T200 evaluation software 3.0. The specific binding response unit was derived from subtraction of binding to reference flow cell 1 from target flow cell 2.

human IL2Rα [11] = molecular target: T2, human IL2Rα; assay: SPR (Biacore T200), human IL2Rα, IL2 mutant in two-fold dilutions from 100 nM (Example 13)
human IL2Rα [12] = molecular target: T2, human IL2Rα; assay: as above; remark: listed apart in the source
human IL2Rα [13] = molecular target: T2, human IL2Rα; assay: as above; remark: listed apart in the source
human IL2Rβ [14] = molecular target: T3, human IL2Rβ; assay: SPR, multi-concentration
human IL2Rα [15] = molecular target: T2, human IL2Rα; assay: SPR (Biacore T200), human IL2Rα, one trace per clone drawn, concentrations not printed (Example 13)
human IL2Rα [16] = molecular target: T2, human IL2Rα; assay: SPR (Biacore T200), human IL2Rα, IL2 mutant in two-fold dilutions from 100 nM (Example 13); remark: listed apart in the source

B1: EP341 (ligand)
chain: APTSSSTKKTQLQLEHLLLDLQMILNGINNYKNPKLTDMLTFKFSMPKKATELKHLQCLEEELKPLEEVLNLAQSKNFHLTARDAIDNINVIVQELKGSETTFMCEYADETATIVEFLNRWITFSQSIISTLTGSHHHHHH
EC50 [1]: 64.1 nM
binding result (human IL2Rα [2]): no binding (tested: single concentration, not printed)
Kd (human IL2Rβ [3]): 2.54 nM
binding result [4]: no binding (tested: not printed)

B3: EP252 (ligand)
chain: APTSSSTKKTQLQLEHLLLDLQMILNGINNYKNPKLTRMLTFKFYMPKKATELKHLQCLEEELKPLEEVLNLAQSKNFHLTPRDAIDNIRVIVQELKGSETTFMCEYADETATIVEFLNRWITFCQSIISTLT
notes: not shown: His and Flag tags
EC50 [5]: 13.8 nM
EC50 [1]: 24.5 nM
EC50 [6]: 13 nM
EC50 [7]: 2.2 nM
Kd (human IL2Rβ [8]): 9.11 nM

B4: EP253 (ligand)
chain: APTSSSTKKTQLQLEHLLLDLQMILNGINNYKNPKLTRMLTFKFYMPKKATELKHLQCLEEELKPLEEVLNLAQSKNFHLTPRDAIDNIRVIILELKGSETTFMCEYADETATIVEFLNRWITFCQSIISTLT
notes: not shown: His and Flag tags
EC50 [5]: 8.9 nM
EC50 [1]: 52.8 nM
EC50 [6]: 48.5 nM
EC50 [7]: 4.8 nM
Kd (human IL2Rβ [8]): 29.5 nM

B5: EP258 (ligand)
chain: APTSSSTKKTQLQLEHLLLDLQMILNGINNYKNPKLTRMLTFKFYMPKKATELKHLQCLEEELKPLEEVLNLAQSKNFHLTARDAISNINVIIQELKGSETTFMCEYADETATIVEFLNRWITFCQSIISTLT
notes: not shown: His and Flag tags
Kd (human IL2Rβ [9]): 8.81 nM
koff (human IL2Rβ [9]): 0.0301 s⁻¹
kon (human IL2Rβ [9]): 3.42e+06 M⁻¹ s⁻¹
EC50 [5]: 9.1 nM
EC50 [1]: 119 nM
EC50 [6]: 2.5 nM
EC50 [7]: 6.5 nM

B10: EP338 (ligand)
chain: APTSSSTKKTQLQLEHLLLDLQMILNGINNYKNPLLTDMLTRKFYMPKKATELKHLQCLEEELKPLEEVLNLAQSKNFHLTARDAISNINVIIQELKGSETTFMCEYADETATIVEFLNRWITFCQSIISTLT
notes: not shown: His and Flag tags
Kd (human IL2Rβ [14]): 38.3 nM
EC50 [1]: 105 nM
binding result (human IL2Rα [15]): no binding (tested: not printed)
binding result [4]: no binding (tested: not printed)

Now from value to binder:

EC50 [1]: 152 nM
Kd (human IL2Rβ [3]): 12.5 nM
B2: EP345 (ligand)
chain: APTSSSTKKTQLQLEHLLLDLQMILNGINNYKNPKLTVMLTFKFSMPKKATELKHLQCLEEELKPLEEVLNLAQSKNFHLTARDAIDNINVIVQELKGSETTFMCEYADETATIVEFLNRWITFSQSIISTLTGSHHHHHH

Kd (human IL2Rβ [10]): 0.233 nM
koff (human IL2Rβ [10]): 0.000598 s⁻¹
kon (human IL2Rβ [10]): 2.56e+06 M⁻¹ s⁻¹
binding result (human IL2Rα [11]): no binding (tested: 100 nM)
B6: EP408 (ligand)
chain: APTSSSTKKTQLQLEHLLLDLQMILNGINNYKNPKLTDMLTFKFSMPKKATELKHLQCLEEELKPLEEVLNLAQSKNFHLGVTDSISNAIVLARELKGSETTFMCEYADETATIVEFLNRWITFCQSIISTLT
notes: not shown: His and Flag tags

binding result (human IL2Rα [12]): no binding (tested: 100 nM)
Kd (human IL2Rβ [10]): 0.855 nM
koff (human IL2Rβ [10]): 0.00616 s⁻¹
kon (human IL2Rβ [10]): 7.21e+06 M⁻¹ s⁻¹
B7: EP401 (ligand)
chain: APTSSSTKKTQLQLEHLLLDLQMILNGINNYKNPSLTRMLTGKFYMPKKATELKHLQCLEEELKPLEEVLNLAQSKNFHLTARDAVDNMRVIIQELKGSETTFMCEYADETATIVEFLNRWITFCQSIISTLT
notes: not shown: His and Flag tags

binding result (human IL2Rα [13]): no binding (tested: 100 nM)
Kd (human IL2Rβ [10]): 0.611 nM
koff (human IL2Rβ [10]): 0.00509 s⁻¹
kon (human IL2Rβ [10]): 8.34e+06 M⁻¹ s⁻¹
B8: EP407 (ligand)
chain: APTSSSTKKTQLQLEHLLLDLQMILNGINNYKNPKLTDMLTFKFSMPKKATELKHLQCLEEELKPLEEVLNLAQSKNFHLTARDAVDNMRVIIQELKGSETTFMCEYADETATIVEFLNRWITFCQSIISTLT
notes: not shown: His and Flag tags

Kd (human IL2Rβ [14]): 35.9 nM
EC50 [1]: 96.3 nM
binding result (human IL2Rα [15]): no binding (tested: not printed)
binding result [4]: no binding (tested: not printed)
B9: EP339 (ligand)
chain: APTSSSTKKTQLQLEHLLLDLQMILNGINNYKNPLLTDMLTRKFYMPKKATELKHLQCLEEELKPLEEVLNLAQSKNFHLTPRDAIDNIRVIVQELKGSETTFMCEYADETATIVEFLNRWITFCQSIISTLT
notes: not shown: His and Flag tags

Kd (human IL2Rβ [10]): 0.108 nM
koff (human IL2Rβ [10]): 0.000397 s⁻¹
kon (human IL2Rβ [10]): 3.68e+06 M⁻¹ s⁻¹
binding result (human IL2Rα [16]): no binding (tested: 100 nM)
B11: EP402 (ligand)
chain: APTSSSTKKTQLQLEHLLLDLQMILNGINNYKNPSLTRMLTGKFYMPKKATELKHLQCLEEELKPLEEVLNLAQSKNFHLGVTDSISNAIVLARELKGSETTFMCEYADETATIVEFLNRWITFCQSIISTLT
notes: not shown: His and Flag tags
